From US20260069689A1 (Regeneron, published 2026) come the findings set out here.

Positions count from the first letter of the chain named.

The labels stand for the following.
B1: mAb14247 (antibody, V domains shown)
VH: QITLKESGPTLVKPTQTLTLTCTFSGFSLSTSAVGVGWIRQPPGKALEWLALIYWDDDKRYSPSLKSRLTITKDTSKNQLVLTMTNVDPVDTATYYCAHHTIQLIFDYWGQGTLVTVSS
VL: QSALTQPASVSGSPGQSITISCTATSSDVGNYNYVSWYQQHPGKAPKLMIYEVSNRPSGVSNRFSGSKSGNTASLTISGLQAEDEADYYCSSYTSSSTPLVFGGGTKLTVLG
B2: mAb14289 (antibody, V domains shown)
VH: QVQLVQSGPEVKKPGASVKVSCKASGYTFTSYAISWVRQAPGQGLEWMGWISAYNGNTNYAQKLQGRVTMTTDTFTSTAYMELRSLRSDDTAVYYCAVPADHITFDYWGQGTLVTVSS
VL: EIVLTQSPGTLSLSPGERATLSCRASQSVSSYLAWYQQKPGQAPRLLIHGASSRATGIPDRFSGSGSGTDFTLTISRLEPEDFAVYYCQQYGSSFLTFGGGTKVEIKR
B3: mAb14283 (antibody, V domains shown)
VH: QVQLQESGPGLVKPSGTLSLTCDVSGGSISSNNWWSWVRQRPGKGLQWIGEIYHNENTNYNPSLKSRVIMSIDKSKNQFSLKLTSVTAADTAVYYCARGDVLDWFDPWGQGTLVTVSS
VL: QSALTQPASVSGSPGQSTTISCTGTSSDVGGYNYVSWYQQYPGKAPKLMIYDVTNRPSGVSHRFSGSKSGNTASLTISGLQAEDEADYYCSSYTSSSTVIFGGGTKLTVLG
B4: mAb14312 (antibody, V domains shown)
VH: EVQLVESGGGLVQPGGSLRLSCAASGFTVSRSYMTWVRQAPGKGLEWVSVIFTGGRTDHADSVKGRFTISRHNSKNTLYLQMNSLRTEDTAVYYCARVAIVGATGAFDIWGQGTMVTVSS
VL: QSVLTQPPSVSGAPGQRVTISCTGSSSNIGAGDDVHWYQQLPGTAPKLLIYGNSNRPSGVPDRFSGSKSGTSASLAITGLQAEDEADYYCQSYDSSLSGSVVFGGGTKLTVLG
B5: mAb14257 (antibody, V domains shown)
VH: B4 VH with T35N, I51V, R56T, D58K, A60T, H72D, K75M, T87P, G102E, A103T
VL: B4 VL with S25T, G32D, D33F, L41F, N53H, S54T, V60I
B6: mAb14294 (antibody, V domains shown)
VH: EVQLVESGGGLVQPGGSLRLSCAASGFTFSNHWMDWVRQAPGKGLVWVSRINSDGSSTDYADSVRGRFTMSRDNAKNTLYLQMSSLRAEDTAVYYCAREGMIFGAVIIPGWYFDLWGRGALVTVSS
VL: EIVLTQSPGTLSLSPGERATLSCRASQSVSSSQLAWYQQKPGQAPRLLIYGASSRATGIPDRFSGSGSGTDFTLTISRLEPEDFAVYYCQQYDSFGQGTKLEIKR
B7: mAb14315 (antibody, V domains shown)
VH: QVQLVQSGAEVKKPGSSVKVSCKASGDTFSTYAINWVRQAPGQGLEWMGRFIHIFGTANYAQKFQGRVTITADESTSTAYMELRSLRSEDTAVYYCARDGVDYGDYRPDYWGQGTLVTVSS
VL: EIVLTQSPGTLSLSPGERATLSCRASQSVSSNYLAWYQQKPGQAPRLLIYGASSRATGIPERFSGSGSGTDFTLTISRLEPEDFAVYYCQQYGSSLYTFGQGTKLEIKR
B8: mAb14313 (antibody, V domains shown)
VH: EVQLVESGGGLVQPGRSLRLSCVASGFTFDDSAMHWVRQPPGKGLEWVSGISWNSGIIGYAESVKGRFIISRDNAKNSLFLHMRGLRPEDTAVYYCARDRLELSYYYYGMDVWGQGTTVTVSS
VL: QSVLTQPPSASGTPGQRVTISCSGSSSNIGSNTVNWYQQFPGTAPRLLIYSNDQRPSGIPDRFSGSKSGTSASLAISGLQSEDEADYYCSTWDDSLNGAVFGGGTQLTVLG
B9: mAb14258 (antibody, V domains shown)
VH: QLQLQESGPGLVKPSETLSLICTGSGDSISSSHYYWGWIRQPPGKGLEWIGSTYFSGSTYYNPSLKSRVSISVDTSKNQVSLKLISVTAADTAVYYCAREMGATLGDYWGPGTLVTVSS
VL: QSVLTQPPSASGTPGQRVTISCSGSSSNIGNNYVYWYQQFPGTTPRLLIYRNNERPSGVPDRFSGSKSGTSASLVISGLRSEDEADYYCAAWDDSLSAHYVFGTGTKVTVLG
B10: mAb14284 (antibody, V domains shown)
VH: QITLKESGPTLVKPTQTLTLTCTFSGFSFSTSGVGVGWIRQPPGKTLEWLALIYWDDDKRYSPSLKSRLTITKDTSKNQVVLTMTNMDPVDTATYFCAHHGIPTIFGYWGQGALVTVSS
VL: QSALTQPASVSGSPGQSITISCTGTSSDLGVFNYVSWYQQHPGKAPKLMIYEVTNRPSGVSNRFSGSKSGNTASLTISGLQAEDEADYYCSSYTTSSTVFGGGTKLTVLG
B11: mAb14235 (antibody, V domains shown)
VH: QITLKESGPTLVKPTQTLTLTCTFSGFSLNTGGVGVGWIRQPPGNALEWLALIYWDDDKRYNPSLKTRLTISKDTSKNQVVLTMTNMDPVDTATYFCAHLTIAVIVDFWGQGTLVTVSS
VL: B10 VL with G24A, L29V, V31T, F32Y, Y38F, Q40H, S96T, T98I
B12: mAb13458 (antibody, V domains shown)
VH: EVQLVESGGGLVQPGRSLRLSCAASGFTFDDYAMHWVRQAPGKGLEWVSGISWNSGSIGYADSVKGRFTISRDNAKNSLYLQMNSLRAEDTALYYCAKDIGITTPYWGQGTLVTVSS
VL: AIQMTQSPSSLSASVGDRVTITCRASQDIRNDLGWYQQKPGKAPKLLIYSASSLQTGVPSRFSGSGSGTDFTLTISSLHPEDFATYYCLQDYWYTWTFGQGTKVEIKR
B13: mAb13459 (antibody, V domains shown)
VH: B12 VH
VL: B12 VL with W93N, T95V

The target in the assay is SARS-COV-2 RBD extracellular domain expressed with a C-terminal myc-myc-hexahistidine tag (SARS-COV-2 RBD-mmH) (SARS-CoV-2). The assay is described as follows: SPR Biacore, mAb captured on anti-hFc, RBD-mmH analyte, 37 C. (In SPR one partner is held on a chip, and binding of the other changes the refractive index at the surface.)
In general, Kd refers to the concentration at which binding is half-saturated. Low values mean a tighter complex, high ones a looser complex. As usually defined, the koff is a measure of how fast the partners let go of each other. Low readings indicate a long-lived complex, high ones a short-lived complex. The term kon denotes the rate constant with which the complex forms. Low readings indicate slower complex formation, high ones faster complex formation. The t½ is the time needed for the level to fall by half in the phase considered. In turn, B1 came in with a Kd of 1.95 nM, an off-rate (koff) of 0.00163 s⁻¹, a kon of 832000 M⁻¹ s⁻¹ and a t½ of 7.1 min.
In the same order, the values of B2 are 1.46 nM, 0.00176 s⁻¹, 1.2e+06 M⁻¹ s⁻¹ and 6.5 min.
Take B3: the equilibrium dissociation constant (Kd) turned out to be 1.17 nM, the off-rate (koff) stood at 0.00179 s⁻¹, the kon was 1.54e+06 M⁻¹ s⁻¹ and the t½ was found to be 6.4 min.
In the case of B4, the Kd is 0.631 nM, the dissociation rate constant (koff) was determined as 0.000988 s⁻¹, the kon worked out at 1.57e+06 M⁻¹ s⁻¹ and the t½ was 11.7 min.
In the same order, the values of B5 are 2.34 nM, 0.00762 s⁻¹, 3.26e+06 M⁻¹ s⁻¹ and 1.5 min.
As to B6, the dissociation constant Kd amounted to 0.984 nM, the off-rate (koff) came out at 0.00059 s⁻¹, the kon is 600000 M⁻¹ s⁻¹ and the t½ amounted to 19.6 min.
Turning to B7, the Kd is 2.26 nM, the koff worked out at 0.000985 s⁻¹, the association rate constant (kon) turned out to be 435000 M⁻¹ s⁻¹ and the t½ came to 11.7 min.
Taken in the same sequence, the figures for B8 were 0.921 nM, 0.00259 s⁻¹, 2.81e+06 M⁻¹ s⁻¹ and 4.5 min.
Taken in the same sequence, the figures for B9 were 0.796 nM, 0.0017 s⁻¹, 2.14e+06 M⁻¹ s⁻¹ and 6.8 min.
Taken in the same sequence, the figures for B10 were 0.94 nM, 0.000605 s⁻¹, 644000 M⁻¹ s⁻¹ and 19.1 min.
Molecule B11 had a Kd of 1.37 nM, an off-rate constant (koff) of 0.00109 s⁻¹, a kon of 793000 M⁻¹ s⁻¹ and a t½ of 10.6 min.
Molecule B12 had a dissociation constant Kd of 1.54 nM, a koff of 0.00139 s⁻¹, a kon of 907000 M⁻¹ s⁻¹ and a t½ of 8.3 min.
In the same order, the values of B13 are 2.6 nM, 0.00204 s⁻¹, 786000 M⁻¹ s⁻¹ and 5.7 min.
